Test results from the supplement of paper PMC12458215.
± gives the uncertainty stated by the source.

These sequences were tested on HEK293T (assay: plasma membrane surface immunostaining intensity (anti-HA, deep receptor scanning) (arbitrary fluorescence units); higher = higher plasma membrane expression). Details: GPCR class: A.
With “MRMEDEDYNTSISYGDEYPDYLDSIVVLEDLSPLEARVTRIFLVVVYSIVCFLGILGNGLVIIIATFKMKKTVNMVWFLNLAVADFLFNVFLPIHITYAAMDYHWVFGTAMCKISNFLLIHNMFTSVFLLTIISSDRCISVLLPVWSQNHRSVRLAYMACMVIWVLAFFLSSPSLVFRDTANLHGKISCFNNFSLSTPGSSSWPTHSQMDPVGYSRHMVVTVTRFLCGFLVPVLIITACYLTIVCKLQRNRLAKTKKPFKIIVTIIITFFLCWCPYHTLNLLELHHTAMPGSVFSLGLPLATALAIANSCMNPILYVFMGQDFKKFKVALFSRLVNALSEDTGHSSYPSHRSFTKMSSMNERTSMNERETGML [CMKLR1]” the “plasma membrane surface immunostaining intensity” value was 747 ± 64.
“MRTLNTSAMDGTGLVVERDFSVRILTACFLSLLILSTLLGNTLVCAAVIRFRHLRSKVTNFFVISLAVSDLLVAVLVMPWKAVAEIAGFWPFGSFCNIWVAFDIMCSTASILNLCVISVDRYWAISSPFRYERKMTPKAAFILISVAWTLSVLISFIPVQLSWHKAKPTSPSDGNATSLAETIDNCDSSLSRTYAISSSVISFYIPVAIMIVTYTRIYRIAQKQIRRIAALERAAVHAKNCQTTTGNGKPVECSQPESSFKMSFKRETKVLKTLSVIMGVFVCCWLPFFILNCILPFCGSGETQPFCIDSNTFDVFVWFGWANSSLNPIIYAFNADFRKAFSTLLGCYRLCPATNNAIETVSINNNGAAMFSSHHEPRGSISKECNLVYLIPHAVGSSEDLKKEEAAGIARPLEKLSPALSVILDYDTDVSLEKIQPITQNGQHPT [DRD1]” was tested, and the “plasma membrane surface immunostaining intensity” value was 1460 ± 310.
With “MRWLWPLAVSLAVILAVGLSRVSGGAPLHLGRHRAETQEQQSRSKRGTEDEEAKGVQQYVPEEWAEYPRPIHPAGLQPTKPLVATSPNPGKDGGTPDSGQELRGNLTGAPGQRLQIQNPLYPVTESSYSAYAIMLLALVVFAVGIVGNLSVMCIVWHSYYLKSAWNSILASLALWDFLVLFFCLPIVIFNEITKQRLLGDVSCRAVPFMEVSSLGVTTFSLCALGIDRFHVATSTLPKVRPIERCQSILAKLAVIWVGSMTLAVPELLLWQLAQEPAPTMGTLDSCIMKPSASLPESLYSLVMTYQNARMWWYFGCYFCLPILFTVTCQLVTWRVRGPPGRKSECRASKHEQCESQLNSTVVGLTVVYAFCTLPENVCNIVVAYLSTELTRQTLDLLGLINQFSTFFKGAITPVLLLCICRPLGQAFLDCCCCCCCEECGGASEASAANGSDNKLKTEVSSSIYFHKPRESPPLLPLGTPC [GPR37L1]” the “plasma membrane surface immunostaining intensity” value was 148 ± 21.
“MSANATLKPLCPILEQMSRLQSHSNTSIRYIDHAAVLLHGLASLLGLVENGVILFVVGCRMRQTVVTTWVLHLALSDLLASASLPFFTYFLAVGHSWELGTTFCKLHSSIFFLNMFASGFLLSAISLDRCLQVVRPVWAQNHRTVAAAHKVCLVLWALAVLNTVPYFVFRDTISRLDGRIMCYYNVLLLNPGPDRDATCNSRQVALAVSKFLLAFLVPLAIIASSHAAVSLRLQHRGRRRPGRFVRLVAAVVAAFALCWGPYHVFSLLEARAHANPGLRPLVWRGLPFVTSLAFFNSVANPVLYVLTCPDMLRKLRRSLRTVLESVLVDDSELGGAGSSRRRRTSSTARSASPLALCSRPEEPRGPARLLGWLLGSCAASPQTGPLNRALSSTSS [PTGDR2]” was tested, and the “plasma membrane surface immunostaining intensity” value was 6413 ± 49.
“MSEEEFYLFKNISSVGPWDGPQYHIAPVWAFYLQAAFMGTVFLIGFPLNAMVLVATLRYKKLRQPLNYILVNVSFGGFLLCIFSVFPVFVASCNGYFVFGRHVCALEGFLGTVAGLVTGWSLAFLAFERYIVICKPFGNFRFSSKHALTVVLATWTIGIGVSIPPFFGWSRFIPEGLQCSCGPDWYTVGTKYRSESYTWFLFIFCFIVPLSLICFSYTQLLRALKAVAAQQQESATTQKAEREVSRMVVVMVGSFCVCYVPYAAFAMYMVNNRNHGLDLRLVTIPSFFSKSACIYNPIIYCFMNKQFQACIMKMVCGKAMTDESDTCSSQKTEVSTVSSTQVGPN [OPN1SW]” was tested, and the “plasma membrane surface immunostaining intensity” value was 2770 ± 310.
In the case of “MSENGSFANCCEAGGWAVRPGWSGAGSARPSRTPRPPWVAPALSAVLIVTTAVDVVGNLLVILSVLRNRKLRNAGNLFLVSLALADLVVAFYPYPLILVAIFYDGWALGEEHCKASAFVMGLSVIGSVFNITAIAINRYCYICHSMAYHRIYRRWHTPLHICLIWLLTVVALLPNFFVGSLEYDPRIYSCTFIQTASTQYTAAVVVIHFLLPIAVVSFCYLRIWVLVLQARRKAKPESRLCLKPSDLRSFLTMFVVFVIFAICWAPLNCIGLAVAINPQEMAPQIPEGLFVTSYLLAYFNSCLNAIVYGLLNQNFRREYKRILLALWNPRHCIQDASKGSHAEGLQSPAPPIIGVQHQADAL [MTNR1B]”, the “plasma membrane surface immunostaining intensity” value is reported as 280 ± 17.
“MSGESMNFSDVFDSSEDYFVSVNTSYYSVDSEMLLCSLQEVRQFSRLFVPIAYSLICVFGLLGNILVVITFAFYKKARSMTDVYLLNMAIADILFVLTLPFWAVSHATGAWVFSNATCKLLKGIYAINFNCGMLLLTCISMDRYIAIVQATKSFRLRSRTLPRSKIICLVVWGLSVIISSSTFVFNQKYNTQGSDVCEPKYQTVSEPIRWKLLMLGLELLFGFFIPLMFMIFCYTFIVKTLVQAQNSKRHKAIRVIIAVVLVFLACQIPHNMVLLVTAANLGKMNRSCQSEKLIGYTKTVTEVLAFLHCCLNPVLYAFIGQKFRNYFLKILKDLWCVRRKYKSSGFSCAGRYSENISRQTSETADNDNASSFTM [CCR6]” was tested, and the “plasma membrane surface immunostaining intensity” value was 418 ± 33.
For “MSGTKLEDSPPCRNWSSASELNETQEPFLNPTDYDDEEFLRYLWREYLHPKEYEWVLIAGYIIVFVVALIGNVLVCVAVWKNHHMRTVTNYFIVNLSLADVLVTITCLPATLVVDITETWFFGQSLCKVIPYLQTVSVSVSVLTLSCIALDRWYAICHPLMFKSTAKRARNSIVIIWIVSCIIMIPQAIVMECSTVFPGLANKTTLFTVCDERWGGEIYPKMYHICFFLVTYMAPLCLMVLAYLQIFRKLWCRQIPGTSSVVQRKWKPLQPVSQPRGPGQPTKSRMSAVAAEIKQIRARRKTARMLMIVLLVFAICYLPISILNVLKRVFGMFAHTEDRETVYAWFTFSHWLVYANSAANPIIYNFLSGKFREEFKAAFSCCCLGVHHRQEDRLTRGRTSTESRKSLTTQISNFDNISKLSEQVVLTSISTLPAANGAGPLQNW [HCRTR2]”, the “plasma membrane surface immunostaining intensity” value was 5620 ± 490.

Same assay, conditions: GPCR class: A (Olfactory)
In the case of “MRRNCTLVTEFILLGLTSRRELQILLFTLFLAIYMVTVAGNLGMIVLIQANAWLHMPMYFFLSHLSFVDLCFSSNVTPKMLEIFLSEKKSISYPACLVQCYLFIALVHVEIYILAVMAFDRYMAICNPLLYGSRMSKSVCSFLITVPYVYGALTGLMETMWTYNLAFCGPNEINHFYCADPPLIKLACSDTYNKELSMFIVAGWNLSFSLFIICISYLYIFPAILKIRSTEGRQKAFSTCGSHLTAVTIFYATLFFMYLRPPSKESVEQGKMVAVFYTTVIPMLNLIIYSLRNKNVKEALIKELSMKIYFS [OR5M8]”, the “plasma membrane surface immunostaining intensity” value is reported as 115 ± 18.
For “MSASNITLTHPTAFLLVGIPGLEHLHIWISIPFCLAYTLALLGNCTLLLIIQADAALHEPMYLFLAMLAAIDLVLSSSALPKMLAIFWFRDREINFFACLAQMFFLHSFSIMESAVLLAMAFDRYVAICKPLHYTKVLTGSLITKIGMAAVARAVTLMTPLPFLLRCFHYCRGPVIAHCYCEHMAVVRLACGDTSFNNIYGIAVAMFIVVLDLLLVILSYIFILQAVLLLASQEARYKAFGTCVSHIGAILAFYTTVVISSVMHRVARHAAPHVHILLANFYLLFPPMVNPIIYGVKTKQIRESILGVFPRKDM [OR52K2]”, the “plasma membrane surface immunostaining intensity” value was 441 ± 130.
In the case of “MSGDNSSSLTPGFFILNGVPGLEATHIWISLPFCFMYIIAVVGNCGLICLISHEEALHRPMYYFLALLSFTDVTLCTTMVPNMLCIFWFNLKEIDFNACLAQMFFVHMLTGMESGVLMLMALDRYVAICYPLRYATILTNPVIAKAGLATFLRNVMLIIPFTLLTKRLPYCRGNFIPHTYCDHMSVAKVSCGNFKVNAIYGLMVALLIGVFDICCISVSYTMILQAVMSLSSADARHKAFSTCTSHMCSIVITYVAAFFTFFTHRFVGHNIPNHIHIIVANLYLLLPPTMNPIVYGVKTKQIQEGVIKFLLGDKVSFTYDK [OR52N2]”, the “plasma membrane surface immunostaining intensity” value is reported as 157 ± 54.
In the case of “MSGENVTKVSTFILVGLPTAPGLQYLLFLLFLLTYLFVLVENLAIILIVWSSTSLHRPMYYFLSSMSFLEIWYVSDITPKMLEGFLLQQKRISFVGCMTQLYFFSSLVCTECVLLASMAYDRYVAICHPLRYHVLVTPGLCLQLVGFSFVSGFTISMIKVCFISSVTFCGSNVLNHFFCDISPILKLACTDFSTAELVDFILAFIILVFPLLATILSYWHITLAVLRIPSATGCWRAFSTCASHLTVVTVFYTALLFMYVRPQAIDSQSSNKLISAVYTVVTPIINPLIYCLRNKEFKDALKKALGLGQTSH [OR6B2]”, the “plasma membrane surface immunostaining intensity” value is reported as 153 ± 9.6.
For “MSGENVTRVGTFILVGFPTAPGLQYLLFLLFLLTYLFVLVENLAIILTVWSSTSLHRPMYYFLSSMSFLEIWYVSDITPKMLEGFLLQQKRISFVGCMTQLYFFSSLVCTECVLLASMAYDRYVAICHPLRYHVLVTPGLCLQLVGFSFVSGFTISMIKVCFISSVTFCGSNVLNHFFCDISPILKLACTDFSTAELVDFILAFIILVFPLLATMLSYAHITLAVLRIPSATGCWRAFFTCASHLTVVTVFYTALLFMYVRPQAIDSRSSNKLISVLYTVITPILNPLIYCLRNKEFKNALKKAFGLTSCAVEGRLSSLLELHLQIHSQPL [OR6B3]”, the “plasma membrane surface immunostaining intensity” value was 115 ± 11.
In the case of “MSGTNQSSVSEFLLLGLSRQPQQQHLLFVFFLSMYLATVLGNLLIILSVSIDSCLHTPMYFFLSNLSFVDICFSFTTVPKMLANHILETQTISFCGCLTQMYFVFMFVDMDNFLLAVMAYDHFVAVCHPLHYTAKMTHQLCALLVAGLWVVANLNVLLHTLLMAPLSFCADNAITHFFCDVTPLLKLSCSDTHLNEVIILSEGALVMITPFLCILASYMHITCTVLKVPSTKGRWKAFSTCGSHLAVVLLFYSTIIAVYFNPLSSHSAEKDTMATVLYTVVTPMLNPFIYSLRNRYLKGALKKVVGRVVFSV [OR1F1]”, the “plasma membrane surface immunostaining intensity” value is reported as 278 ± 120.

Same assay, conditions: GPCR class: B
With “MRPPSPLPARWLCVLAGALAWALGPAGGQAARLQEECDYVQMIEVQHKQCLEEAQLENETIGCSKMWDNLTCWPATPRGQVVVLACPLIFKLFSSIQGRNVSRSCTDEGWTHLEPGPYPIACGLDDKAASLDEQQTMFYGSVKTGYTIGYGLSLATLLVATAILSLFRKLHCTRNYIHMHLFISFILRAAAVFIKDLALFDSGESDQCSEGSVGCKAAMVFFQYCVMANFFWLLVEGLYLYTLLAVSFFSERKYFWGYILIGWGVPSTFTMVWTIARIHFEDYGCWDTINSSLWWIIKGPILTSILVNFILFICIIRILLQKLRPPDIRKSDSSPYSRLARSTLLLIPLFGVHYIMFAFFPDNFKPEVKMVFELVVGSFQGFVVAILYCFLNGEVQAELRRKWRRWHLQGVLGWNPKYRHPSGGSNGATCSTQVSMLTRVSPGARRSSSFQAEVSLV [VIPR1]” the “plasma membrane surface immunostaining intensity” value was 5730 ± 200.
With “MRTLLPPALLTCWLLAPVNSIHPECRFHLEIQEEETKCAELLRSQTEKHKACSGVWDNITCWRPANVGETVTVPCPKVFSNFYSKAGNISKNCTSDGWSETFPDFVDACGYSDPEDESKITFYILVKAIYTLGYSVSLMSLATGSIILCLFRKLHCTRNYIHLNLFLSFILRAISVLVKDDVLYSSSGTLHCPDQPSSWVGCKLSLVFLQYCIMANFFWLLVEGLYLHTLLVAMLPPRRCFLAYLLIGWGLPTVCIGAWTAARLYLEDTGCWDTNDHSVPWWVIRIPILISIIVNFVLFISIIRILLQKLTSPDVGGNDQSQYKRLAKSTLLLIPLFGVHYMVFAVFPISISSKYQILFELCLGSFQGLVVAVLYCFLNSEVQCELKRKWRSRCPTPSASRDYRVCGSSFSRNGSEGALQFHRGSRAQSFLQTETSVI [VIPR2]” the “plasma membrane surface immunostaining intensity” value was 6470 ± 74.
